Experimental findings from patent US20210206875A1, “ERBB-2 TARGETING AGENT AND A BISPECIFIC ANTIBODY WITH ANTIGEN-BINDING SITES THAT BIND AN EPITOPE ON AN EXTRACELLULAR PART OF ERB-2 AND ERBB-3, FOR TREATMENT OF AN INDIVIDUAL WITH AN ERBB-2, ERBB-2/ERBB-3 POSITIVE TUMOUR” (Merus N.V., priority 2017, published 2021) are described below.

The test concerns the target Erbb-3-Fc (RND systems) (UniProt P21860). Put plainly: SPR (Biacore T100), monovalent affinity; column head 'KD on Her3 (nM)'; PB4188 on CM5 chip, Her3-Fc in solution. (In general: SPR reads the build-up and loss of mass on a sensor chip optically.)

By Kd is commonly meant the constant that tells how readily two partners part at equilibrium. Low values mean higher affinity, high ones lower affinity.

Regarding “PB4188 (MF3958 x MF3178) (bispecific antibody)”, the Kd came to 3.9 nM.
